Test system: HDM2 (C-terminal HA);p53 (human;human?)
Assay: pull-down (anti-HA beads, real-time PCR)
Details: 100 uM Nutlin-3A (disrupts p53-HDM2); Anti-HA protein G beads; blocked in PBST-3% BSA, IVT HDM2 30 min, Nutlin 1 h, IVT p53 1 h; washes PBST-0.1% BSA then PBS; temperature and pH not given

Work on “2ConA-HDM2 DNA template (two CONA p53 response elements)” yielded a binding signal (fold reduction of DNA pulled down) of 383.

Reference: article PMC3641235
